Experimental data: a protein production outcome set (Wang et al. 2014)

Assay: label from the status in PepcDB records

Sequence | protein production
MNLLTNEKTIKVFSSLIYTSLIISLIAMIFDVKLASKIFNTIGIISAILLFINKREIKKESMLIPLSILFLCVTNLIWEQLYKNSGSEIIGLYHSYHNVMKILFLGSSLTLFVMTFSSKHPLTKNALNIIYTIPFFLVLYYLLSEPEVRFSISDKIATSSAYMISFIGILTSQVILLKTEKRNLFFYFINHIIFFTIIVLSGTRAAILAYPLLSAIVLIPAILKDKKINLKLIILYIMVNIVCLVACQKTIMSRSENLISDINMYNQSNSESSVGARIAMYRSGLTSFIHAPMGQSAESRQLDIQKQAEQNPSLSGAALLTGIHLHNELIEAISLKGIIGGMALLLLYASLFYFSSFILKDYALTSLTLSLVIYGLSDVIFYGKNATTVWIVTYCLSILLVKRNRGVQ | failed
MLKRASFVEVDTASLRHNFSAVKSIVPKDACVMAVVKANAYGAGAIKASEIFLQEGANYLGVATLDEALELRSHFSKTPILILGYSPNANASMLVDNDLSAMIFSLEQAEVFSQMALKSQKRLKVHIKIDTGMHRLGLEPNFKSIETIKKIRALKGLEIEGIFTHLSNADAKIKTHAKNQMKAFNAFLEQLLDQKIEFQYRHAYNSAGILSLCNGNENRLLNLYRPGIMLYGFYPSNGMKESCPTILKNVISLKAQIVQIRSVKKGEFIGYGEHFYTNEETLVGVLALGYADGLMRALGNRIQVAINNQLAPLIGKVCMDQCFVKLNNIQAKEGDEVILFGDKSAKANDASEIXALLNTIAYETISTLSKRLERVYI | failed
MDKASRFDRMVKEKKNDELGLFEKYEETLAEIRKRIIKYKAKTVVDMGCGTGNLCGELSKEIEALGIDKSLEMLEGAKRKYKHIKFKIGSFSDKPFIGKWAGVVVTTYAFHGLNSEEKKEAIKNMIGYLKDDGRIIIGDYMFKNKAEKEECRNKLLSKKRQDLWEVIDGRYYTDLEELKDYVKSLGFKIISEHIVNFTWIVEIYK | failed
RAVAGWGARPSAAPARRRARSLGVPYIALEDGFLRSFGTGRHFPPLSLVVDRLGIYYDATRESELECLLASSRTLLDGIEDAVPEAMELVRERRLSKYNQGCFLATGVPADGRRRVLVVDQTEGDMSVTLGCAEAATFEAMLAAARAESPGALICVKTHPEVAAGDKSGYLSRVTDDADTVALRHDMNPLALLEQMDRVYVVSSQMGFEALMLDKPVTCFGMPWYAGWGVTDDRQRCERRGRARSVEELFAGAYFHYTRYLDPVLH | failed
MSSLMIKLNLNYKLITKKTLPKLFYWGLGIVFFFLAPTTNAGSLSPYTTKELEQLEREFIQLINQSDSVERNPLASQYINSIGKKLAHYGRIKTPYFFIVKSKEINAFAGPGGYIGINTQLILTSSNESELAAVMAHEIAHVRLHHLYSIIEHQKQMRVPLLASILASAALGVLNPTVGMGAMMASVSGFSQDNINFTRSKEKEADRIGIDMLIKAGFNPQGMAAFFNKMQENSRYYYTANIPAILRTHPLDADRIAEAENRTSRLPKKHYTDSLDYALFKELIRVSVASNNKQILDYYEHHCHKKNPATACQYGYVLALLNNNNFQKAAEKLNPLLLQDNSNLNFQIAMAQAELGLSQYQSALSRLAELQNNFPDNYAALMAYAQGLLTANQPQKATAVLLKGSRQYKEDLPLCRELARAQAESHQKSYAYFTQAQCLLLEGQKRGAIAQLKVAQKLAKRDAYLSARISAKIDEIKFMVENLEHHHHHH | failed
MEETILIVSFLLFLILSNVINRIFPKLPLPFIQLVFGILSGLVFHKSQVHIDPELFLAFVIAPLNFREGQESDIGSFIKYRAIILYLILPTVFLTAIVVGYVAGHLLPVSLPLAACFALGAALGPTDAVAFISIAKRFQFPKRAENILKLEGLLNDASGLVSFQFALTALVTGYFSLAKASLKLALAIMGGFLIGLLFAFLMRLCLTVLEKFDAADVTGALLLELTLPFVAYFVADLLGFSAIIAVVVAGVMQANRLKKVTLFDAQVDRVTSVIWETLNFILNGLVFLIFGRELTRIIGPLLTSNAYSNFDLISIVVLVTCTLFLVRFLAVSCFYAWRSFKYHKSFKKYWREIQLLTFSGVKGSVSIATILLLPKHSVIGELGYSLILFTVGAVTLMSFLTGLLVLPKLAPPLQVKDDYLIRLSILTKVLSVLEEDGKSSENQASFYAVIDNYNSRIRHLILEQESSDIKKDLAELQLMMLSIESDGLEAAYRYGNISIKEYRIYQRYLKYLERQVNRSFVSNITYSLTILMRVIRGIVHEFLTFGQGIRNRKKHFKNRKRLLAEVNRQHLTDLYLSNNDLILETLEDMEGYYNATLIDFLQNERIRDAELIKSGLFVERVIARITPDILNETLRGYYLERRTISEFERDGLISSKESQILRDNVNELESYSLRDSQSSIPYQLLDLKK | failed
MGNFSLFSSFNPEGQHDDVANRWRSPTPMRYIIPNIITILAICAGMSSIRLAFEHRYEAAILMVLLAAILDGADGRIARLMDGSSSFGAQMDSLADVINFGVAPSLIVYSFVLNQAHQVGWIAGLVYCVACCLRLARFNVMLDNTDIPKWQGNYFVGVPAPAGALLLLLPMYLGALGLVPSWSWALFFSLYTVIIAFLLVSRLPVWNGKTINQNLRRDIVVPCMLGIVIYVGFLATYTWHTLLITAVSYMIFLPCSFVAYNKRAALEEKKANIKTLSSS | failed
MEGIVSIVFSTYNNREKALKCIESCLKQKYNKLFVIVADDGSNDGSQELFKKIQEKDSRFKFIPLVHKERGIARGKAISLAKKLESEYIYIIDSDMILEDNLIEKCMSFFNKNKNVGALIVPEYAFSEYENFYSKVKVFERNIINNSGEDMGKNSIEAARFWRMDAYDLSGGINPSQISFEETQPTIRYVEKGGVVKRAVFTKVYHDEKFVTLRNLLKKKMYYFSVMDKTIQSEEGGFIKTLKRWYFFRPVLYRGSNLKRYLRHPILTIGMINMYVILTLVGVSQILKRKK | failed
MTNIIKIRASVFIPMSWTEAKMDMETGQVIQFEGDSREFTPHAVNTMRSRVEQEVVVDFYKQEVFSYANTGITTEKVISPDGSVNKRTGKASTENIVCTDIVWNSGGVQFKMSASASNPLNVYAPPVDYVLNVCVKKDGSIDVQGEHDGFPCFEFYKQVDFGPFEKIYTHDFRETGDTAAALGGNMDYSFTKRL | not failed
MRELFKSVRGFFRLLRMIFPKRLKNAFLGLSELFYYASSLSFYTILSLSPILLFVFSLFVSHYLQAHSGEMEALIFPNAPKLIGAIKDFLENFKKTDMTLGTLEEVSIVVALVLFCENYRSIASKIFQAKPRDYAHFKGKEIFLFWGFGTTLVFLFALPLVVFFDIKIQVFFEDKNSNLLHVLRWIGTYAFFLILFTIPTNKVFKHYFWVFLWVFFTSVSWHVLKWAFTYYVLYNRTYHELYGSVSILWFLMSWVYVSWLVILIGMYGCKVCDAFDPKEVFKKFLGFFKKET | failed
MGHHHHHHSHMVASWELRVEGRLLEDSALSKYDATKQKRKFSSFFKSLVIELDKDLYGPDNHLVEWHRTATTQETDGFQVKRPGDVNVRCTVLLMLDYQPPQFKLDPRLARLLGIHTQTRPVIIQALWQYIKTHKLQDPHEREFVI | failed
MDRRIAMSLQVLGAGLGRTGTLSLKFALEHLGFGPCYHATEVAANMRTALPLWNAAERGAADWSAIFAGYRSSTDHPGCYYWRQLIEVYPQAKVVLTVRDPDSWFESVTQTILMPGRKSTFVGPEGETFSTFLKQQMGGRSQDRAFMVDYFNRWNQAVIDAVPSDRLLVFSSRQGWAPLCGFLSVPVPHKPYPHLHARPRLRWFTRGLRLPDDVAARERHVREYLQYLREDLFGLEHHHHHH | not failed
NHSHSLAVIGSRNATQYTSQSLNYLFPSFRQLNMAIVSGLARGADSVAHQTALKYLLPTIGVLGFGHCYHYPKATLNLRTKVERNGLVISEYPPFSPISKHKFPERNRLISGLSRGVLITEAEERSGSQITIDCALEQNRNVYVLPGSMFNKMTKGNLRRINEGAQVVIDESSILYDYLF | failed
MKSITQLENKKVLVLGLAKSGEAAARLLAKLGAIVTVNDGKAFEENPSAQSLLEEGIKVVCGGHPLELLDENFELMVKNPGIRYDNPMVARALEKEIPVWTEVELAYLVSEAPIIGITGSNGKTTTTTMIADVLNHGGKSGVLSGNIGFPASEVAQSVTNQDTLVMELSSFQLMGIESFHPHIAVITNLMPTHIDYHGSFEEYVAAKWNIQNEMTSDDFIILNFNQDLAKELATQTNAQVVPFSTVEKVDGAYLENGGLYFKGELLMHADELGVPGSHNVENALATIAVAKLSGVSNQAIKETLSSFGGVKHRLQFVDTIDDVKFYNDSKSTNILATQKALSGFDNSKVILIAGGLDRGNEFDELIPDITGLKKMVILGESAPRVKRAADKAGVTYLDAKDVADATRIAFEQASAGDVVLLSPANASWDMYKNFEVRGDEFITTVERLKG | failed
MDGVFRLLLGRFIQRGTIIFTTAGGTTFTCGDGTGEQVHARLTSPLAQRRLLLDPELALGEIYMDGGLVMQQGSIADLLAVAMGQPDWTPRWAKLHGLVRYWIRTLHQFNPRSRSRNNVAHHYDLDGRLYALFLDSDKQYSCAYFETPDANLDDAQLAKKRHVAAKLLTTPGQRVLDIGSGWGGLGLYLAETCGADVTGVTLSREQLQAANTRAAERGLADRARFLLQDYRDVPGPFDRIVSVGMFEHVGVDHYDTYFRRCAELLKDDGVMLLHSIGRSEGPGFTNPWIAKYIFPGGYLPALSEVLPAIERAGLLVCDIEILRLHYAETLKAWRERFLAHREEAERLYDARFVRMWEFYLAASEMSFRKQNTMVFQIQLTRRQGVVPITRDYIAAEEKRLRGMEKSRTPRLQLAGE | failed
MSKLSLIQQLKQQKLSVGILSANWLQLNEEVTTLLENQINVLHFDIADGQFSSLFTVGAIGIKYFPTHCFKDVHLMVRNQLEVAKAVVANGANLVTLQLEQYHDFALTIEWLAKQKTTYANQVYPVLIGACLCPETPISELEPYLDQIDVIQLLTLDPRNGTKYPSELILDRVIQVEKRLGNRRVEKLINIDGSMTLELAKYFKQGTHQIDWLVSGSALFSGELKTNLKVWKSSIM | not failed
APEERDLTQEQTEKLLQFQDLTGIESMDQCRHTLEQHNWNIEAAVQDRLNEQEG | not failed
MCTPAADTRRGSPALASTARRGLLPARRNGPSARRGEALRSSTGRFVCWCRRRTASVDPSGFMPASFSIAGRLVDLHARAIRPATVHVQDGVIARIEPAETVPERHLLPGFIDAHVHVESAMLPPSEFARAAVRHGTVGTVSDPHEIANVLGVEGVEYMIADGRPVPFHFAFGAPSCVPATPFETSGAELGPDAVSALLDRDDVPYLSEMMDYPGAIDGAPNVLAKIRAAQVRDKPVDGHAPGLRGDDVAQYAAAGIETDHECVSIEEAREKLEAGMKIAIREGSAAKNFDELIPLMDEAPDRLMFCSDDRHPDALAEGHIDTLVRRALNRGYDRFDVLRAACVHPVEHYGLDVGLLREGDPADFIVVDDLDALNVQETYVEGALVAEEGETHIEHVASDVVNRFDAEPVAPADFRVPAGGDRLRVITAVDNQLGTGEEVVTTPTDDGYAVADPDRDVLKLAVVNRYTEESTPAVAFVRGFGLDGGALASSVAHDSHNVVAVGARDDALARAVNAVVRAEGGISAAAEGTQVLPLPIAGLMSDEPYDVVARRYTRLTDYVRAELGSAMDAPFMTLSFLSLLVIPQLKLSDRGLFDGAAFEFVDRFVD | failed
MMETTAGDTLQQFVTAPVRTATYKRLLYLLLAFPLGVAYFVAFTTGSSLGLGLAFTLVGLPVLLVTLVATTGAAGLEARLATVLLDQEVATPPSPRETLDSDDGYLAAVWRFATEPTTWTSVAVVLLKFVYGIVAFVVTITGTALVGTLLAAPFVYDDPGVNYQFGQYAVSTLPEAIGVATVGVAGIWILCNVINVVAAAGGLMTDAFLSVGRERAA | failed
STIIYIKDLNGRYTLVNNKYCEVLGIERRKIIGAMDFELFQPPLAELYQQNDQRANNSHDALHFEEPIPTPRGEIIYHMTKFDIRDDE | failed
MISTFALFWALCIVCIINMARYYSSLRVLLMILRDCDPLLYQYVDGGGFFTSHGQPSKQIRLVGYIYAQRYLDHHDPEFIRRCERVRGQFLLTTALCGLIVISLIAMMMWY | failed
